One assay deals with HLA-A*02:10. The assay can be described thus: IEDB peptide-MHC binding, purified MHC/direct/fluorescence; filed as Kd, often an IC50 or EC50 that approximates it; ≥ and ≤ were set here for values at or beyond the usual limits of such assays. Conditions: source organism: Escherichia coli O157:H7 str. EC869.
Another assay addresses HLA-A*02:11. The description is as above. Conditions: source organism: Escherichia coli O157:H7 str. EC869.
The next assay concerns the target HLA-A*02:50. The description is as above. Conditions: source organism: Escherichia coli O157:H7 str. EC869.
Assay [1] concerns the target HLA-A*23:01. The description is as above. Particulars: source organism: Escherichia coli O157:H7 str. EC869.
In assay [2] the target is HLA-A*24:03. Described as above. Conditions: source organism: Escherichia coli O157:H7 str. EC869.
Assay [3] deals with HLA-A*29:02. The description is as above. Conditions: source organism: Escherichia coli O157:H7 str. EC869.
The target of a further assay is HLA-A*30:01. Described as above. Conditions: source organism: Escherichia coli O157:H7 str. EC869.
In assay [4] the target is HLA-B*07:02. Described as above. Particulars: source organism: Escherichia coli O157:H7.
The next assay concerns the target HLA-B*15:01. The assay is described as above. Conditions: source organism: Escherichia coli O157:H7 str. EC869.
The target of assay [5] is HLA-B*18:01. The description is as above. Particulars: source organism: Escherichia coli O157:H7 str. EC869.
Another assay has as its target HLA-B*40:01. The description is as above. Conditions: source organism: Escherichia coli O157:H7 str. EC869.
A further assay has as its target HLA-B*44:02. Described as above. Particulars: source organism: Escherichia coli O157:H7 str. EC869.
In assay [6] the target is HLA-B*51:01. Described as above. Particulars: source organism: Escherichia coli O157:H7.
The target in assay [7] is HLA-B*57:01. Described as above. Particulars: source organism: Escherichia coli O157:H7 str. EC869.
The target of assay [8] is HLA-B*58:01. The assay is described as above. Conditions: source organism: Escherichia coli O157:H7 str. EC869.
The target of the next assay is HLA-B*46:01. The assay can be described thus: IEDB peptide-MHC binding, purified MHC/competitive/fluorescence; filed as Kd, often an IC50 or EC50 that approximates it; ≥ and ≤ were set here for values at or beyond the usual limits of such assays.
Assay [9] concerns the target HLA-A*02:01. The assay is described as above. Particulars: source organism: Plesiomonas shigelloides.
For the next assay, the target named is HLA-A*02:03. The description is as above. Conditions: source organism: Plesiomonas shigelloides.
Another assay concerns the target HLA-A*02:12. The description is as above. Particulars: source organism: Plesiomonas shigelloides.
In another assay the target is HLA-A*02:16. The assay is described as above. Particulars: source organism: Plesiomonas shigelloides.
The target of a further assay is HLA-A*02:19. Described as above. Conditions: source organism: Plesiomonas shigelloides.
The target in assay [10] is HLA-A*23:01. Described as above. Particulars: source organism: Plesiomonas shigelloides.
Assay [11] deals with HLA-A*24:03. Described as above. Particulars: source organism: Plesiomonas shigelloides.
For a further assay, the target named is HLA-A*26:01. The description is as above. Conditions: source organism: Plesiomonas shigelloides.
For assay [12], the target named is HLA-A*29:02. The description is as above. Conditions: source organism: Plesiomonas shigelloides.
In assay [13] the target is HLA-A*68:02. The description is as above. Particulars: source organism: Plesiomonas shigelloides.
The target of a further assay is HLA-A*69:01. The assay is described as above. Particulars: source organism: Plesiomonas shigelloides.
A further assay addresses HLA-A*80:01. The assay is described as above. Conditions: source organism: Plesiomonas shigelloides.
The target of the next assay is HLA-B*27:03. Described as above. Particulars: source organism: Plesiomonas shigelloides.
The next assay has as its target HLA-B*39:01. Described as above. Particulars: source organism: Plesiomonas shigelloides.
For assay [14], the target named is HLA-B*51:01. The description is as above. Particulars: source organism: Plesiomonas shigelloides.
In assay [15] the target is HLA-B*57:01. The assay is described as above. Particulars: source organism: Plesiomonas shigelloides.
A further assay has as its target HLA-A*01:01. The assay can be described thus: IEDB peptide-MHC binding, purified MHC/competitive/fluorescence; ≥ and ≤ were set here for values at or beyond the usual limits of such assays. Particulars: source organism: Homo sapiens.
For assay [16], the target named is HLA-A*02:01. Described as above. Particulars: source organism: Homo sapiens.
The next assay deals with HLA-A*03:01. The description is as above. Conditions: source organism: Homo sapiens.
Another assay addresses HLA-A*11:01. Described as above. Particulars: source organism: Homo sapiens.
A further assay concerns the target HLA-A*24:02. The description is as above. Particulars: source organism: Homo sapiens.
Another assay addresses HLA-A*25:01. Described as above. Particulars: source organism: Homo sapiens.
The target in assay [17] is HLA-A*29:02. The assay is described as above. Particulars: source organism: Homo sapiens.
A further assay has as its target HLA-A*31:01. Described as above. Particulars: source organism: Homo sapiens.
For assay [18], the target named is HLA-A*68:02. The description is as above. Particulars: source organism: Homo sapiens.
Assay [19] deals with HLA-B*07:02. The assay is described as above. Particulars: source organism: Homo sapiens.
A further assay concerns the target HLA-B*08:01. Described as above. Particulars: source organism: Homo sapiens.
The target of another assay is HLA-B*14:02. Described as above. Conditions: source organism: Homo sapiens.
The target of assay [20] is HLA-B*18:01. Described as above. Conditions: source organism: Homo sapiens.
In a further assay the target is HLA-B*35:01. Described as above. Conditions: source organism: Homo sapiens.
The target of another assay is HLA-B*37:01. Described as above. Conditions: source organism: Homo sapiens.
In a further assay the target is HLA-B*40:02. Described as above. Conditions: source organism: Homo sapiens.
In the next assay the target is HLA-B*44:03. The assay is described as above. Conditions: source organism: Homo sapiens.
In assay [21] the target is HLA-B*51:01. The assay is described as above. Particulars: source organism: Homo sapiens.
The next assay has as its target HLA-B*53:01. The assay is described as above. Conditions: source organism: Homo sapiens.
The target of assay [22] is HLA-B*58:01. The assay is described as above. Particulars: source organism: Homo sapiens.

We go through 3 sequences from the Immune Epitope Database (IEDB).

Broadly, the Kd is a measure of binding affinity in units of concentration. Higher therefore signals lower affinity. With ESMMGSTAM, the Kd in the assay with HLA-A*02:10, in the assay with HLA-A*02:11, with HLA-A*02:50, with HLA-A*23:01 [1], in the assay with HLA-A*24:03 [2] and with HLA-A*29:02 [3] was at least 20 µM each time. Besides, the dissociation constant Kd was at least 20 µM with HLA-A*30:01; 0.316 µM in the assay with HLA-B*07:02 [4]; 0.031 µM with HLA-B*15:01; at least 20 µM with HLA-B*18:01 [5]; at least 20 µM with HLA-B*40:01; at least 20 µM with HLA-B*44:02. Besides, the Kd with HLA-B*51:01 [6] was at least 20 µM; with HLA-B*57:01 [7], at least 20 µM; in the assay with HLA-B*58:01 [8], at least 20 µM; with HLA-B*46:01 (source organism: Escherichia coli str. K-12 substr. MG1655), 3 µM.
Consider LLFRMILNY, for which the Kd in the assay with HLA-A*02:01 [9], with HLA-A*02:03, in the assay with HLA-A*02:12, with HLA-A*02:16, in the assay with HLA-A*02:19 and with HLA-A*23:01 [10] was at least 20 µM throughout. Also, the Kd with HLA-A*24:03 [11] was at least 20 µM; in the assay with HLA-A*26:01 it was at least 20 µM; in the assay with HLA-A*29:02 [12], 0.005 µM; in the assay with HLA-A*68:02 [13], at least 20 µM; in the assay with HLA-A*69:01, at least 20 µM; with HLA-A*80:01 it was 0.0259 µM. The Kd with HLA-B*27:03, with HLA-B*39:01, with HLA-B*46:01 (source organism: Plesiomonas shigelloides), with HLA-B*51:01 [14] and in the assay with HLA-B*57:01 [15] was at least 20 µM each time.
A word on the IC50: it is the concentration needed to halve the response being measured. Low readings indicate higher potency, high ones lower potency. For YFYYNAFHWAI, the IC50 with HLA-A*01:01 is at least 20 µM; with HLA-A*02:01 [16] it was 2.91 µM; in the assay with HLA-A*03:01, at least 20 µM; with HLA-A*11:01, at least 20 µM; in the assay with HLA-A*24:02 it was 1.13 µM; with HLA-A*25:01, at least 20 µM. Also, the IC50 with HLA-A*29:02 [17] is 0.661 µM; in the assay with HLA-A*31:01, at least 20 µM; with HLA-A*68:02 [18], 3.62 µM; with HLA-B*07:02 [19], at least 20 µM; in the assay with HLA-B*08:01 it was at least 20 µM; with HLA-B*14:02, 15.1 µM. The half-maximal inhibitory concentration (IC50) with HLA-B*18:01 [20], with HLA-B*35:01, with HLA-B*37:01, with HLA-B*40:02, in the assay with HLA-B*44:03 and with HLA-B*51:01 [21] was at least 20 µM throughout. Further, the IC50 with HLA-B*53:01 and in the assay with HLA-B*58:01 [22] was at least 20 µM each time.
